The record followed here is patent US6624144B1, “Matrix metalloproteinase inhibitors and down-regulators” (CTT Cancer Targeting Technologies Oy, priority 1998, dated 2003).

Bridge positions count the residues as written; N and C are the ends. Ends that are not written are not given here.

Data set [1] is described as follows: Solubility in aqueous buffers.
The target in data set [2] is T1, APMA-activated MMP-2 (human, UniProt P08253 30-660).
T1 sequence (looked up): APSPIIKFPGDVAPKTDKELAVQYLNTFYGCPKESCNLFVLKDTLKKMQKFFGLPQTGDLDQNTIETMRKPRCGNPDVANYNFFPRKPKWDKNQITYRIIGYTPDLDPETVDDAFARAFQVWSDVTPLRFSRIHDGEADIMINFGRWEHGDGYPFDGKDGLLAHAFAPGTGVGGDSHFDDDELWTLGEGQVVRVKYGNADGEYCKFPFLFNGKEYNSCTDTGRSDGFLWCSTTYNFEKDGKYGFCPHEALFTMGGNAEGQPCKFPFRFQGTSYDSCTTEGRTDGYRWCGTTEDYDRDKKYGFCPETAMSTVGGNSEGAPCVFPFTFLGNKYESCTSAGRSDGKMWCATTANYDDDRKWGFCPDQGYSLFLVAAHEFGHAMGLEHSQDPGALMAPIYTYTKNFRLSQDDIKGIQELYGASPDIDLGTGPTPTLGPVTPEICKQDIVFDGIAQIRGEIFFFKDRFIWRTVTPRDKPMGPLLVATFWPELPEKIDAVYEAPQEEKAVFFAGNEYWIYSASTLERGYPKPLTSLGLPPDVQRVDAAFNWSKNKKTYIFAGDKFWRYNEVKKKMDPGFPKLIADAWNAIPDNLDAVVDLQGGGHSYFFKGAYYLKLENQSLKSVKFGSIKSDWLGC
In words: cell-based or functional assay.

In data set [3] the target is APMA-activated MMP-9 (human, UniProt P14780 94-707). In words: cell-based or functional assay.
Data set [4] deals with T2, proMMP-2 (human, UniProt P08253 30-660).
T2 sequence (looked up): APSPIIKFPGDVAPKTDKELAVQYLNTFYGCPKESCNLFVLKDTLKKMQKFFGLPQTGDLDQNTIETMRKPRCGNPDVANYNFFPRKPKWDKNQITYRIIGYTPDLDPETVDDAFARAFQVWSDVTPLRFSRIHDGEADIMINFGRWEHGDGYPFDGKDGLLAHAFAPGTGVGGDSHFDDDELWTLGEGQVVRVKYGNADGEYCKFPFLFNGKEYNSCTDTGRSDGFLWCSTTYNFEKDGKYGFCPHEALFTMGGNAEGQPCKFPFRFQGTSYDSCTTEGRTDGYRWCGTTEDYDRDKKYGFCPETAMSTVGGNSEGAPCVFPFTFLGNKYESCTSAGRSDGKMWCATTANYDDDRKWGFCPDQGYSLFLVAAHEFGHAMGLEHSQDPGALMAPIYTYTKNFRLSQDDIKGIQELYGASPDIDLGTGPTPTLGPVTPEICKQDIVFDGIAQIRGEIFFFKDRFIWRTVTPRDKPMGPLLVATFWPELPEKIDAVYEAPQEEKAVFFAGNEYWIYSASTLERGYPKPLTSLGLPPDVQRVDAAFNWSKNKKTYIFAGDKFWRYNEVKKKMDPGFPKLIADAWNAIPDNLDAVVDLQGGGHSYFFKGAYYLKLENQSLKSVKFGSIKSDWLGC
Put plainly: cell-based or functional assay.

Data set [5] has as its target T3, proMMP-9 (human, UniProt P14780 20-707).
T3 construct: also called 92 kDa proMMP-9
In words: phage binding (attachment) assay.

T3 sequence (P14780 20-707): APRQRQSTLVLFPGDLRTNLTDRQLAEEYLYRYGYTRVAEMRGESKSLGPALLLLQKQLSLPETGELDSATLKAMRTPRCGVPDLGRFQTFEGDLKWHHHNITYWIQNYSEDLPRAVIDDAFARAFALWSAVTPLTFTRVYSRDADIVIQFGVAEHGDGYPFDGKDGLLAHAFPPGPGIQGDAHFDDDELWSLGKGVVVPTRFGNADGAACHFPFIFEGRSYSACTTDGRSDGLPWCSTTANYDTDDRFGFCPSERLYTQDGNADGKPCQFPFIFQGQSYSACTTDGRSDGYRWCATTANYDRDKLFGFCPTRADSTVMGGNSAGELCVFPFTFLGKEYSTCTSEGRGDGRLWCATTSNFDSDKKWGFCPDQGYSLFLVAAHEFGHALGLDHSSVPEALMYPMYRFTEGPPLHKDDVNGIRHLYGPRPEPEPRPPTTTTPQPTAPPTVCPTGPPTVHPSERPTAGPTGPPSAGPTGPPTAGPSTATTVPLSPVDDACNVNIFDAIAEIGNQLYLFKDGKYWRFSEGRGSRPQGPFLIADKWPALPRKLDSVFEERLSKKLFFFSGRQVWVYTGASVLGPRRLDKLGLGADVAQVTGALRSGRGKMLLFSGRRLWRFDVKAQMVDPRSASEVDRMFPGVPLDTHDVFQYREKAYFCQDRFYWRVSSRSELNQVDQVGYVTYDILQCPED

Take CQWNNDNPLFKEAEEEVMNPKFAES: the solubility entry in data set [1] is on record as “highly soluble”.

With CRRHWGFEFC (disulfide 1-10 (inferred)) [cyclic CRRHWGFEFC synthetic peptide], the “IC50, β-casein degradation (SDS-PAGE)” value in data set [2] is roughly 25 µg/mL; in data set [4], 25 µg/mL. In addition, the “IC50, [125I]-gelatin degradation assay” value in data set [3] was roughly 10 µg/mL.

B1: phage clone displaying CSLHWGFWWC (from the CX9 library) (peptide)
peptide: CSLHWGFWWC
notes: not shown: phage coat protein to which the peptide is fused
B1: the binding result in data set [5] is on record as “no binding”.

As for CTTHWGFTLC (disulfide 1-10 (inferred)) [cyclic CTTHWGFTLC synthetic peptide], the figures for the “IC50, β-casein degradation (SDS-PAGE)” value in data set [2] and in data set [4] were roughly 5 µg/mL and 5 µg/mL, respectively.

B2: phage clone displaying CRRHWGFEFC (from the CX9 library) (peptide)
peptide: CRRHWGFEFC
notes: as for B1
Turning to B2, in data set [5], the binding result is “no binding”.
